This note sets out measurements from patent publication US20250136720A1 (Boehringer Ingelheim, published 2025).

Positions count from the first letter of the chain named.

B1: CD137 #8 (A49.V43) + FAP #5 (C3 VK1/VH4) (bispecific antibody, human IgG1, kappa, L234A L235A)
heavy: not shown
light: EIVMTQSPLSLPVTPGEPASISCRSSQSLLYSNGYNHLDWYLQKPGQSPQLLIYLGSNRASGVPDRFSGSGSGTDFTLKISRVEAEDVGVYYCMQALQTPPTFGQGTKLEIKRTVAAPSVFIFPPSDEQLKSGTASVVCLLNNFYPREAKVQWKVDNALQSGNSQESVTEQDSKDSTYSLSSTLTLSKADYEKHKVYACEVTHQGLSSPVTKSFNRGEC
B2: CD137 #8 (A49.V43) + FAP #3 (A11 VK7/VH1) (bispecific antibody, human IgG1, kappa, L234A L235A)
heavy: not shown
light: B1 light
B3: CD137 #8 (A49.V43) + FAP #2 (A11 VK3/VH3) (bispecific antibody, human IgG1, kappa, L234A L235A)
heavy: not shown
light: B1 light
B4: CD137 #5 (B21.V29) + FAP #2 (A11 VK3/VH3) (bispecific antibody, human IgG1, kappa, L234A L235A)
heavy: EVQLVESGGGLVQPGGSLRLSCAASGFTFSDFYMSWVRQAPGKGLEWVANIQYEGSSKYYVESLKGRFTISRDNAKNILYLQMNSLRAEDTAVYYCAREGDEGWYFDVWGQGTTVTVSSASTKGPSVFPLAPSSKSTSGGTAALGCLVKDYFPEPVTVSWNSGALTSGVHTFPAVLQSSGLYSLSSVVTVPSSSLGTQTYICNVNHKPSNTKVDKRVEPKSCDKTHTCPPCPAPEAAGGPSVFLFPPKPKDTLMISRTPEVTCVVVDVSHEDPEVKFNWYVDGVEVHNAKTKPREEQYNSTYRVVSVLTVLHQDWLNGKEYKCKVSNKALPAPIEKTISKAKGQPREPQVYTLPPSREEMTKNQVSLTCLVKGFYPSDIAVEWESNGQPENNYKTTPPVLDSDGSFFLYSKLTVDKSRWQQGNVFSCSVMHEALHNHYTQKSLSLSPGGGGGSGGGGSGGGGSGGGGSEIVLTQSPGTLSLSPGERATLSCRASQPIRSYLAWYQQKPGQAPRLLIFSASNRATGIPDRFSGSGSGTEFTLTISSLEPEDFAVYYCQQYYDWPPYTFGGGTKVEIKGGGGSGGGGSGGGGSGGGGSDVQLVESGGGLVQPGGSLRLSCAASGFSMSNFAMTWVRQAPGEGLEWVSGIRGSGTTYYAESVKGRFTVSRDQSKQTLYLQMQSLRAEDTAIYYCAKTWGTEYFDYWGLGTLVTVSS
light: DIQMTQSPSSLSASVGDRVTITCRASQSISTALAWYQQKPGKAPKLLIYAASYRYSGVPSRFSGSGSGTDFTLTISSLQPEDFAVYYCQQHYSNPWTFGQGTKLEIKRTVAAPSVFIFPPSDEQLKSGTASVVCLLNNFYPREAKVQWKVDNALQSGNSQESVTEQDSKDSTYSLSSTLTLSKADYEKHKVYACEVTHQGLSSPVTKSFNRGEC
B5: CD137 #2 (B21.V16) + FAP #2 (A11 VK3/VH3) (bispecific antibody, human IgG1, kappa, L234A L235A)
heavy: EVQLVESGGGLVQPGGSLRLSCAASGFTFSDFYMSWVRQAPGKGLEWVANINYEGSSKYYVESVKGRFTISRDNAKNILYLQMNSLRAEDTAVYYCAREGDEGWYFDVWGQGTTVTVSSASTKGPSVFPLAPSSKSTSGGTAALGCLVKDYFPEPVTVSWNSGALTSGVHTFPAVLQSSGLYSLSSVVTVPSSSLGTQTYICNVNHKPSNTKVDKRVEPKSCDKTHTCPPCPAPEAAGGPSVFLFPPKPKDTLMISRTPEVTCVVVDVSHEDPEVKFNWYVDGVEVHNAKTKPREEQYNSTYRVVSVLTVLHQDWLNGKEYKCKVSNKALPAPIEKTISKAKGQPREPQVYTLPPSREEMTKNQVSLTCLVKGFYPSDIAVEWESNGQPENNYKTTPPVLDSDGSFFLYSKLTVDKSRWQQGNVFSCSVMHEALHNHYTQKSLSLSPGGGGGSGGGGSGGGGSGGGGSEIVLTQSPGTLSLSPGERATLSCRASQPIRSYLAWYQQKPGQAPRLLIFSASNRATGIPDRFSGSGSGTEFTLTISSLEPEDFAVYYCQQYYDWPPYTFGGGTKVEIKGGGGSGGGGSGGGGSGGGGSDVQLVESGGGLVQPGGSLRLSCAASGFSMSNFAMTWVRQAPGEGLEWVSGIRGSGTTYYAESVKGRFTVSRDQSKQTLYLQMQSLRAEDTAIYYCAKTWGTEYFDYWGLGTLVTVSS
light: B4 light with R24K, S28D, T31S, L33V, A50S, Y53S, S56T
B6: CD137 #6 (B21.V37) + FAP #3 (A11 VK7/VH1) (bispecific antibody, human IgG1, kappa, L234A L235A)
heavy: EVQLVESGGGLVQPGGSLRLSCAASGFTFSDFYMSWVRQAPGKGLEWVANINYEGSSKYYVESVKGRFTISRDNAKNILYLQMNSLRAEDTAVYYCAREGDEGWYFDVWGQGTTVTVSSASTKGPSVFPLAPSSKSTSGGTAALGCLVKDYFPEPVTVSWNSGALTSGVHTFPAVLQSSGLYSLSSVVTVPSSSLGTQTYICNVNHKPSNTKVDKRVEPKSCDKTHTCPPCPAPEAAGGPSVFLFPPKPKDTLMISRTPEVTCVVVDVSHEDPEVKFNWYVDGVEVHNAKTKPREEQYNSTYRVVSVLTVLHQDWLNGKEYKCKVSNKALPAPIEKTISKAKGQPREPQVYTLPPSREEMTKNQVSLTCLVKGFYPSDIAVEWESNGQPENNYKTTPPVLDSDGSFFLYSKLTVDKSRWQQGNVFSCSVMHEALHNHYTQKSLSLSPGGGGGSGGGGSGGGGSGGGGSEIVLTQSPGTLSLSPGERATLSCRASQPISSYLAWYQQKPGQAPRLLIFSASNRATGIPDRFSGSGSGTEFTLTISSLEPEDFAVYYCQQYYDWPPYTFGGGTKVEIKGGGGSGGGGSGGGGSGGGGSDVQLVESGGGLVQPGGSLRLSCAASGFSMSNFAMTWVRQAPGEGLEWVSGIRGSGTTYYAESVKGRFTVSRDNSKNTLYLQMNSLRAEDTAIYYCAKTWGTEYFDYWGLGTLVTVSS
light: B4 light
B7: CD137 #5 (B21.V29) + FAP #3 (A11 VK7/VH1) (bispecific antibody, human IgG1, kappa, L234A L235A)
heavy: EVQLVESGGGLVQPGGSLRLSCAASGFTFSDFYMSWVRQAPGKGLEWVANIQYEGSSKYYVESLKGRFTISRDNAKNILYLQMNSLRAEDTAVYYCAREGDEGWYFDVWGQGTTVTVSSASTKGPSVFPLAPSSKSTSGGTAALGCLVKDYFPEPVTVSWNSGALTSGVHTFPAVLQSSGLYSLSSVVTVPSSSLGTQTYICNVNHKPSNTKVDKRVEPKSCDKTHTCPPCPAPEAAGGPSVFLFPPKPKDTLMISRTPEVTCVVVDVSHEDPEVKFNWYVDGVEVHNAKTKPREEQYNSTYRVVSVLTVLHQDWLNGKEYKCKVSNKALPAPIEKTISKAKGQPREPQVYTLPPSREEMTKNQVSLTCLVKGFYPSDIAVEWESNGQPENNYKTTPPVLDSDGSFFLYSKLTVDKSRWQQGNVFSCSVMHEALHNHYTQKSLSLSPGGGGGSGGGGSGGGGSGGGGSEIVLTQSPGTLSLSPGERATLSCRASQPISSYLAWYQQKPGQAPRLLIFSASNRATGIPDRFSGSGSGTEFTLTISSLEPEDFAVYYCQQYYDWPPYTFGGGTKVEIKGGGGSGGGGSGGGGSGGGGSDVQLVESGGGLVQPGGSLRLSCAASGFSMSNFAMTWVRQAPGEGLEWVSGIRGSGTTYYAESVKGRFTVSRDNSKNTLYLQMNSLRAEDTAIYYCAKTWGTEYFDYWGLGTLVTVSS
light: B4 light
B8: CD137 #6 (B21.V37) + FAP #2 (A11 VK3/VH3) (bispecific antibody, human IgG1, kappa, L234A L235A)
heavy: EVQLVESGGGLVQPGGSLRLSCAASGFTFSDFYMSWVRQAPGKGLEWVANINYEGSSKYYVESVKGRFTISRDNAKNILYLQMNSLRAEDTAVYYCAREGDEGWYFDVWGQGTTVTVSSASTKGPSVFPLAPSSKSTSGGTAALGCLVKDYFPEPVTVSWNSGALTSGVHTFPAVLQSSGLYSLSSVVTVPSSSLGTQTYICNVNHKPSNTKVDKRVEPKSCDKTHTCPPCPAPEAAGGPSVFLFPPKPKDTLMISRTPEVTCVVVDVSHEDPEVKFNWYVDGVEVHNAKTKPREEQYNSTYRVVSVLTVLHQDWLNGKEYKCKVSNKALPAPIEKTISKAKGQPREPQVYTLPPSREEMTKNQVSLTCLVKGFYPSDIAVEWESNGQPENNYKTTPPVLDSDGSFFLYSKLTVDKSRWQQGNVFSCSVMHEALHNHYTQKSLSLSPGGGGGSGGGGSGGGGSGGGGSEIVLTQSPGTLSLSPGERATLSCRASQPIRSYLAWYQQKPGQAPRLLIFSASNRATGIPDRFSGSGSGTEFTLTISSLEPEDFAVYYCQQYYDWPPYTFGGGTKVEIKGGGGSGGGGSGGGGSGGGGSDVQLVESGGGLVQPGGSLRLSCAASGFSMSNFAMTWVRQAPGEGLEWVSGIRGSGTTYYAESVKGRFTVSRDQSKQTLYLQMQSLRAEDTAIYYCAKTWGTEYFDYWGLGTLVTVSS
light: B4 light
B9: CD137 #6 (B21.V37) + FAP #5 (C3 VK1/VH4) (bispecific antibody, human IgG1, kappa, L234A L235A)
heavy: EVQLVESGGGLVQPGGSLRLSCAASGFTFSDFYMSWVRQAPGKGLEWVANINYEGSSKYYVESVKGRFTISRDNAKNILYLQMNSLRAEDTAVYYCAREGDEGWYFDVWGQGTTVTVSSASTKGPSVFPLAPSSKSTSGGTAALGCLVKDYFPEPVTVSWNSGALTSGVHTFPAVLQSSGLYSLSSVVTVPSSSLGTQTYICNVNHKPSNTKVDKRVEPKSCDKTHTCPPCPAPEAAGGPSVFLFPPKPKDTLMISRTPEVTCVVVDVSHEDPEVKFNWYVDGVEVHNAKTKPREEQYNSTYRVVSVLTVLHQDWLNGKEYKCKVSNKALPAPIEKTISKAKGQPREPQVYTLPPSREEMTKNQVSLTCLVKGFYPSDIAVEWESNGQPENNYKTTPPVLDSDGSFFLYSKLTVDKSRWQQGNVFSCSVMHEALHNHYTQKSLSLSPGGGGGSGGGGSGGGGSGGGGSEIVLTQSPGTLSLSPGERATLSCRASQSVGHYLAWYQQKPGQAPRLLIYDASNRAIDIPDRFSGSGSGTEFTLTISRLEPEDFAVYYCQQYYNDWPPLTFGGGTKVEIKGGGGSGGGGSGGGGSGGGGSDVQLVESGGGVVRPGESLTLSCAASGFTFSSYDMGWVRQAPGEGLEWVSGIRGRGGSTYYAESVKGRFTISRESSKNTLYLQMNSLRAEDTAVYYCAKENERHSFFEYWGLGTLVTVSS
light: B4 light

The first test concerns the target T1, Human CD137 on Jurkat cells (human, UniProt Q07011 24-255). In words: cell-based or functional assay.
For B1, the “Average EC50; Jurkat-CD137 NFkB-luciferase, HT1080-FAP co-culture” value (shortened to “Average EC50”) is 0.166 nM; the “Average EC90; Jurkat-CD137 NFkB-luciferase, HT1080-FAP co-culture” value (“Average EC90” below) was 1.43 nM; the “Average IC50; Jurkat-CD137 NFkB-luciferase, HT1080-FAP co-culture” value (from here on “Average IC50”) was 624 nM; the “Average IC90; Jurkat-CD137 NFkB-luciferase, HT1080-FAP co-culture” value (shortened to “Average IC90”) is 84.6 nM. For the same molecule, the “Ratio IC50/EC50; Jurkat-CD137 NFkB-luciferase, HT1080-FAP co-culture” value (“Ratio IC50/EC50” below) amounted to 3750 and the “Ratio IC90/EC90; Jurkat-CD137 NFkB-luciferase, HT1080-FAP co-culture” value (“Ratio IC90/EC90” for short) was 59.4.
As to B2, the “Average EC50” value is 0.17 nM; the “Average EC90” value was found to be 1.01 nM; the “Average IC50” value came out at 362 nM; the “Average IC90” value is 58.3 nM. Further, the “Ratio IC50/EC50” value was 2130 and the “Ratio IC90/EC90” value came out at 57.6.
With B3, the “Average EC50” value turned out to be 0.327 nM; the “Average EC90” value is 2.59 nM; the “Average IC50” value came to 958 nM; the “Average IC90” value stood at 210 nM. For the same molecule, the “Ratio IC50/EC50” value stood at 2930 and the “Ratio IC90/EC90” value is 81.2.
With B4, the “Average EC50” value was determined as 0.16 nM; the “Average EC90” value is 0.883 nM; the “Average IC50” value is 444 nM; the “Average IC90” value was 86.7 nM. The “Ratio IC50/EC50” value is 2780 and the “Ratio IC90/EC90” value was found to be 98.1.
Take B5: the “Average EC50” value stood at 0.165 nM; the “Average EC90” value was 1.47 nM; the “Average IC50” value worked out at 847 nM; the “Average IC90” value turned out to be 87.8 nM. For the same molecule, the “Ratio IC50/EC50” value stood at 5130 and the “Ratio IC90/EC90” value came to 59.7.
For B6, the “Average EC50” value was 0.141 nM; the “Average EC90” value was found to be 1.43 nM; the “Average IC50” value came to 756 nM; the “Average IC90” value worked out at 165 nM. Further, the “Ratio IC50/EC50” value is 5370 and the “Ratio IC90/EC90” value was 115.
Take B7: the “Average EC50” value came out at 0.09 nM; the “Average EC90” value was determined as 0.671 nM; the “Average IC50” value came out at 347 nM; the “Average IC90” value worked out at 52.8 nM. Besides, the “Ratio IC50/EC50” value is 3840 and the “Ratio IC90/EC90” value turned out to be 78.6.
For the molecule B8, the “Average EC50” value worked out at 0.153 nM; the “Average EC90” value came out at 1.07 nM; the “Average IC50” value stood at 314 nM; the “Average IC90” value is 105 nM. The “Ratio IC50/EC50” value amounted to 2060 and the “Ratio IC90/EC90” value is 98.1.
For B9, the “Average EC50” value amounted to 0.054 nM; the “Average EC90” value stood at 0.315 nM; the “Average IC50” value came out at 191 nM; the “Average IC90” value amounted to 13.8 nM. For the same molecule, the “Ratio IC50/EC50” value is 3520 and the “Ratio IC90/EC90” value was found to be 43.8.

The next test concerns the target T1, Human CD137 on Jurkat cells. Kind of test: cell-based or functional assay. More on the design: IC90; Jurkat-CD137 NFkB-luciferase, HT1080-FAP co-culture / EC90; Jurkat-CD137 NFkB-luciferase, HT1080-FAP co-culture: unit not given beside the values. The source holds these as a separate data set.
For B1, the “EC90; Jurkat-CD137 NFkB-luciferase, HT1080-FAP co-culture” value stood at 0.98; the “IC90; Jurkat-CD137 NFkB-luciferase, HT1080-FAP co-culture” value was found to be 54; the “Total AUC; Jurkat-CD137 NFkB-luciferase, HT1080-FAP co-culture” value (from here on “Total AUC; Jurkat-CD137 NFkB-luciferase”) was 3.18e+07.
In the same order, the values of B2 are 0.96, 60.8 and 3.15e+07.
In the same order, the values of B3 are 5.04, 467 and 2.5e+07.
In the same order, the values of B4 are 0.78, 62.8 and 2.9e+06.
As to B5, the “EC90; Jurkat-CD137 NFkB-luciferase, HT1080-FAP co-culture” value stood at 3.14; the “IC90; Jurkat-CD137 NFkB-luciferase, HT1080-FAP co-culture” value was found to be 127; the “Total AUC; Jurkat-CD137 NFkB-luciferase” value came out at 3.3e+06.
In the same order, the values of B6 are 2.34, 258 and 3.5e+06.
The like results for B7 were, in that order, 0.52, 51.9 and 2.9e+06.
The like results for B8 were, in that order, 0.55, 53.6 and 4e+06.
For the molecule B9, the “EC90; Jurkat-CD137 NFkB-luciferase, HT1080-FAP co-culture” value came to 0.47; the “IC90; Jurkat-CD137 NFkB-luciferase, HT1080-FAP co-culture” value stood at 13.8; the “Total AUC; Jurkat-CD137 NFkB-luciferase” value is 3.6e+06.
